Results reported in publication PMC8203622, “Tight docking of membranes before fusion represents a metastable state with unique properties” (Nature Communications, 2021).

Biological target: T1, syntaxin-1A (183–288) (Rattus norvegicus, UniProt P32851 183-288)
T1 construct: syntaxin-1A, Rattus norvegicus, residues 183-288
Experiment: assembly of a complex by mixing, isolated by ion exchange chromatography (MonoQ); purified proteins mixed overnight at 4 °C in a buffer containing CHAPS, then MonoQ
Details: both partners purified

T1 sequence (P32851 183-288): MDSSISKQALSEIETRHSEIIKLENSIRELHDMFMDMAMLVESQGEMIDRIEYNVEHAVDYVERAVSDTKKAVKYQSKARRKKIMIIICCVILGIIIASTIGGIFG

B1: synaptobrevin-2 fragment (49–96) (domain or fragment, Rattus norvegicus, UniProt P63045 49-96, looked up)
chain: NVDKVLERDQKLSELDDRADALQAGASQFETSAAKLKRKYWWKNLKMM
notes: synaptobrevin-2, Rattus norvegicus, residues 49-96; also called synaptobrevin fragment 49–96
Q: Does B1 bind?
A: binds
